# Results from PMC3718800, “Structural and Functional Perturbation of Giardia lamblia Triosephosphate Isomerase by Modification of a Non-Catalytic, Non-Conserved Region” (PLoS ONE, 2013).
# Substrate: O=C[C@H](O)COP(=O)(O)O
# Assay: Coupled alpha-glycerol-3-phosphate dehydrogenase assay following NADH decrease at 340 nm at 25°C in 100 mM triethanolamine/10 mM EDTA, pH 7.4, with 0.2 mM NADH and GAP varied from 0.3 to 3 mM, fitted to the Michaelis-Menten equation by non-linear regression.
# Assay type: biochemical
# Procedure: Glyceraldehyde 3-phosphate (GAP), buffers, salts and all the other analytical grade reagents were acquired from Sigma–Aldrich; α-glycerol-3-phosphate dehydrogenase (α-GDH) was from Roche, crystallization screen kits were obtained from Hampton Research. Restriction enzymes, DNA polymerase and T4 DNA ligase were purchased from New England BioLabs and Invitrogene. Oligonucleotide synthesis and DNA sequencing was performed at the Unidad de Biología Molecular, Instituto de Fisiología Celular, UNAM. Protein concentration was determined by the bicinchoninic acid method or by absorbance at 280 nm for pure GlTIM (ε280 = 26600 M^-1cm^-1). The TIM activity was determined at 25°C by a coupled assay, following the decrease in absorbance at 340 nm. The standard reaction mixture contained 100 mM triethanolamine/10 mM EDTA, pH 7.4 (TE buffer), 1 mM GAP, 0.2 mM NADH, and 0.9 units of α-GDH (20 μg/mL); the reaction was initiated by addition of 5 ng/mL of WT, C222V or C222M GlTIM, 10 ng/mL of C222N, 20 ng/mL of C222D or C222F, and 200 ng/mL of C222K. Kinetic, binding and stability data were analyzed by non-linear regression calculations with Origin software.
# Determination of Km and Vmax was performed by fitting initial velocity data at GAP concentrations ranging from 0.3 to 3 mM to the Michaelis-Menten equation (v = Vmax•S/Km+S) by non-linear regression calculations. The kcat was derived from Vmax by considering a molecular mass for the monomer of 27.7 kDa. The Ki for 2-phosphoglycolate (2-PG) was calculated by global fit of initial velocity curves (GAP from 0.3 to 3 mM) obtained at different fixed concentrations of the inhibitor. Prior to fitting collectively the data to the simple competitive inhibition equation (v = Vmax•S/Km(1+I/Ki)+S), individual data were plotted as double reciprocal plots to confirm competitive inhibition.
protein,measurement,value
GlTIM (Giardia duodenalis) (protein) MPARRPFIGGNFKCNGSLDFIKSHVAAIAAHKIPDSVDVVIAPSAVHLSTAIAANTSKQLRIAAQNVYLEGNGAWTGETSVEMLQDMGLKHVIVGHSERRRIMGETDEQSAKKAKRALEKGMTVIFCVGETLDERKANRTMEVNIAQLEALGKELGESKMLWKEVVIAYEPVWSIGTGVVATPEQAEEVHVGLRKWFAEKVCAEGAQHIRIIYGGSANGSNCEKLGQCPNIDGFLVGGASLKPEFMTMIDILTKTRT,Km,620 ± 220 µM
same,Vmax,8050 µmol/min/mg
same,kcat,7330 s⁻¹
